This note sets out measurements from article PMC9204302, “Novel Pharmacology Following Heteromerization of the Angiotensin II Type 2 Receptor and the Bradykinin Type 2 Receptor” (Frontiers in Endocrinology, 2022).

For test [1], the target named is B2 receptor tagged with Rluc8 (B2-Rluc8) (human) (UniProt P30411). In words: FRET or BRET; BRET1/eBRET in live HEK293FT cells, one BRET-tagged receptor and one BRET-tagged interacting protein coexpressed, no second receptor; ligand-induced BRET after AngII or BK, 37°C. On the technique in general: BRET reads energy transfer from a luciferase to a nearby fluorophore.

The target in test [2] is T1, Venus-tagged B2 receptor (B2-Venus) (human, UniProt P30411 1-391).
T1 construct: made by replacing the Rluc8 coding region of B2-Rluc8 with Venus cDNA; C-terminal end of the tag follows from the parent B2-Rluc8; source: HEK293FT, transiently transfected, in live cells; not shown: Venus, C-terminal, kept
T1 sequence (looked up): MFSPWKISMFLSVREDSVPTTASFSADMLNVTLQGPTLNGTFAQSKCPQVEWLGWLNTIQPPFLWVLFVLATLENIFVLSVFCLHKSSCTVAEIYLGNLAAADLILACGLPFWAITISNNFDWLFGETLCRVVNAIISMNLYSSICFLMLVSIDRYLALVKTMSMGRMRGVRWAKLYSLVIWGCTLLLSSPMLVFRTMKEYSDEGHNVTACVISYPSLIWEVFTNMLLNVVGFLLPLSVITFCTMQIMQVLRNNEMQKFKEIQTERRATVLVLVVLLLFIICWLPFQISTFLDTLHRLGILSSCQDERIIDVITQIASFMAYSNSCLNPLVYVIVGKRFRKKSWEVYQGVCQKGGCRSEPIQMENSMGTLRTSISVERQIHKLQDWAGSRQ
Described as above. The note with it: partners not purified.

“NES-Venus-mGsq (Venus-tagged mini G protein)” came in with a pEC50 of BK (ligand-induced BRET) in test [1] of 7.73.

B1: Rluc8-tagged GRK2 (GRK2-Rluc8) (enzyme, UniProt P25098 1-689, looked up)
chain: MADLEAVLADVSYLMAMEKSKATPAARASKKILLPEPSIRSVMQKYLEDRGEVTFEKIFSQKLGYLLFRDFCLNHLEEARPLVEFYEEIKKYEKLETEEERVARSREIFDSYIMKELLACSHPFSKSATEHVQGHLGKKQVPPDLFQPYIEEICQNLRGDVFQKFIESDKFTRFCQWKNVELNIHLTMNDFSVHRIIGRGGFGEVYGCRKADTGKMYAMKCLDKKRIKMKQGETLALNERIMLSLVSTGDCPFIVCMSYAFHTPDKLSFILDLMNGGDLHYHLSQHGVFSEADMRFYAAEIILGLEHMHNRFVVYRDLKPANILLDEHGHVRISDLGLACDFSKKKPHASVGTHGYMAPEVLQKGVAYDSSADWFSLGCMLFKLLRGHSPFRQHKTKDKHEIDRMTLTMAVELPDSFSPELRSLLEGLLQRDVNRRLGCLGRGAQEVKESPFFRSLDWQMVFLQKYPPPLIPPRGEVNAADAFDIGSFDEEDTKGIKLLDSDQELYRNFPLTISERWQQEVAETVFDTINAETDRLEARKKAKNKQLGHEEDYALGKDCIMHGYMSKMGNPFLTQWQRRYFYLFPNRLEWRGEGEAPQSLLTMEEIQSVEETQIKERKCLLLKIRGGKQFILQCDSDPELVQWKKELRDAYREAQQLVQRVPKMKNKPRSPVVELSKVPLVQRGSANGL
notes: GPCR kinase 2 (GRK2); construct synthesized by GeneArt; also called GPCR kinase 2; source: HEK293FT, transiently transfected, in live cells
For B1, the “pEC50 of BK (ligand-induced BRET)” value in test [2] is 7.35.
